“And” between values parts separate entries of the source, which are not always exact repeats. Equal values may be shown once.
Columns and labels:
[1] = molecular target: the molecule itself; experiment: crystal structure; MBP-CC fusions at 50 mg/mL, sitting drop vapor diffusion, 16°C, sodium acetate pH 4.8; molecular replacement with MBPX(E)
[2] = molecular target: the molecule itself; experiment: AUC; sedimentation velocity, 42,000 rpm, 20°C; 0.6 mg/ml in 25 mM sodium acetate pH 4.7, 150 mM NaCl, 0.3 mM TCEP
[3] = molecular target: the molecule itself; experiment: AUC; sedimentation velocity, 42,000 rpm, 20°C; 0.6 mg/ml in PBS pH 7.4, 150 mM NaCl, 0.3 mM TCEP
[4] = molecular target: the molecule itself; experiment: SEC-MALS; Superose6 10/300 GL, 0.4 ml/min, 25 mM Tris pH 7.5, 150 mM NaCl, 2% glycerol, 2 mM BME
[5] = molecular target: the molecule itself; experiment: native gel or EMSA; native gel electrophoresis (4-16% Bis-Tris) of the NTD

B1: MBP-CC 95-124 (xMcm10 residues 95-124 fused to maltose binding protein) (domain or fragment, Xenopus laevis, UniProt Q5EAW4 95-124, looked up)
chain: VCQEKSKDELEDELRKMQAQMKKLQEQLQK
notes: Mcm10, Xenopus laevis, coiled-coil region, residues 95-124 (95-122 in the final model); Trimer in the crystal; dimer in sedimentation velocity; MBPX(E) as in PDB 3H4Z; also called xMcm10-CC^95–124; wild-type CC; source: E. coli C41, purified (amylose resin, Superdex S200); not shown: MBP (mutant form MBPX(E) residues 1-367; uncleavable linker AAAMG), N-terminal, kept
[1]
  stoichiometry N: 3

B2: MBP-CC 95-132 (xMcm10 residues 95-132 fused to maltose binding protein) (domain or fragment, Xenopus laevis, UniProt Q5EAW4 95-132, looked up)
chain: VCQEKSKDELEDELRKMQAQMKKLQEQLQKTALAKTSS
notes: Mcm10, Xenopus laevis, coiled-coil region, residues 95-132; MBPX(E) as in PDB 3H4Z (search model); the linker in the 95-124 model is AAAMG; Calculated mass 45.1 kDa; source: E. coli C41, purified (amylose resin, Superdex S200); not shown: MBP (mutant form MBPX(E) from pMALX(E); short uncleavable linker), N-terminal, kept
[2]
  stoichiometry N: 3 and 2
[3]
  stoichiometry N: 1.7 MBP-CC subunits

B3: Full-length Xenopus laevis Mcm10 (natural protein, UniProt Q5EAW4 1-860, looked up)
chain: MEVDADLELLTSLLEENEAAERNGVVSHEASSELDEFDELFDGDEDGSYHGSDNGTEEQTIGGVEEDFTTLFGDIDDIKEEEAAASDTKKQSSSVCQEKSKDELEDELRKMQAQMKKLQEQLQKTALAKTSSPGNPKKSPENKMVQSGKTSRTSPLIERKKTDSNTVAPQLTSPTVPKAKLPDAPKRKQNLSDKSPVQKKMASFLSPPEKSSARPGQSTATQPITNTLKSPVGQQYHVEKFSGLRIRKPRVSSSEMERKMNGRKLIRLAQLQNKIATEKLEEEDWVTFGVIVKKITPQSSNNGKTFSIWRLNDLKDLDKYISLFLFGDVHKEHWKTDQGTVIGLLNANPMKPKEGTDEVCLSVDNPQKVLLMGDAVDLGTCKARKKNGDPCTQMVNLNDCEYCQYHVQAQYKKVSSKRADLQSSYSGHVPKKMARGANGLRERLCQGGFHYGGVSSMAYAATLGSTTAPKKTVQSTLSNMVVRGAEAIALEARQKIAAAKNVVQTDEFKELMTLPTPGALNLKKHLSGVSPQANCGKEGQPIQSISASTLLKQQKQQMLNARKKRAEESQKRFLESTEKSEKSSTLTSSACSVFQSPKQGAEFPNAQKMATPKLGRGFAEGDDVLFFDISPPPAPKLSTSAEAKKLLAIQKLQAKGQTLAKTDPNSIKRKRGSSSEELVAQRVASHASTSPKSPDENEPAIKKHRDQLAYLESEEFQKILNAKSKHTGILKEAEVEIQEHYFDPLVKKEQLEEKMQSIREQSCRVVTCKTCKYTHFKPKETCVSENHDFHWHNGVKRFFKCPCGNRTISLDRLPKKHCSTCGLFKWERVGMLKEKTGPKLGGETLLPRGEEHGKFLNSLK
notes: Minichromosome maintenance protein 10 (Mcm10), Xenopus laevis, full length (860 residues by the construct 230-860; calculated mass 95.4 kDa); also called xMcm10; full-length Mcm10; source: Hi-5 insect cells (baculovirus, Bac-to-Bac), purified (Ni-NTA, Source Q, Superose6 gel filtration)
[4]
  stoichiometry N: ~2 Mcm10 subunits and ~3.4 Mcm10 subunits

B4: Mcm10-NTD (aa 1-145) L104A/L108A (2A mutant) (domain or fragment, Xenopus laevis, UniProt Q5EAW4 1-145, looked up)
chain: MEVDADLELLTSLLEENEAAERNGVVSHEASSELDEFDELFDGDEDGSYHGSDNGTEEQTIGGVEEDFTTLFGDIDDIKEEEAAASDTKKQSSSVCQEKSKDEAEDEARKMQAQMKKLQEQLQKTALAKTSSPGNPKKSPENKMV
notes: Mcm10, Xenopus laevis, residues 1-145 with L104A/L108A; also called NTD 2A
[5]
  binding result: binds

From article PMC3720919, “Mcm10 Self-Association Is Mediated by an N-Terminal Coiled-Coil Domain” (PLoS ONE, 2013)
